Our source for the Kd values is paper PMC6097396, “Crystal structures of a llama VHH antibody BCD090-M2 targeting human ErbB3 receptor” (F1000Research, 2018).

Usually Kd stands for the equilibrium constant for the complex coming apart.

The target of the assay is T1, extracellular domain (residues 21-643) of the human ErbB3 receptor (Homo sapiens, UniProt P21860).
T1 construct: ErbB3 receptor (HER3), human, extracellular domain, residues 21-643; The ErbB3 gene fragment is followed by a hexahistidine tag and a FLAG-tag; also called HER3; extracellular domain of ErbB3; source: CHO-T-HC cells, transfected (pEE vector), purified from culture fluid (HisTrap HP, Superdex 200 SEC)
In words: SPR; Biacore T200; ErbB3 extracellular domain immobilised on CM5 chip by amine coupling; BCD090-M2 injected at 1 uM down to 0.49 nM in 10 mM HEPES pH 7.4, 0.15 M NaCl, 50 ug/ml BSA; 37°C; equilibrium fit of response against concentration; mean of three experiments. The following applies: both partners purified. On the technique in general: SPR reads the build-up and loss of mass on a sensor chip optically.

T1 sequence (P21860 21-643): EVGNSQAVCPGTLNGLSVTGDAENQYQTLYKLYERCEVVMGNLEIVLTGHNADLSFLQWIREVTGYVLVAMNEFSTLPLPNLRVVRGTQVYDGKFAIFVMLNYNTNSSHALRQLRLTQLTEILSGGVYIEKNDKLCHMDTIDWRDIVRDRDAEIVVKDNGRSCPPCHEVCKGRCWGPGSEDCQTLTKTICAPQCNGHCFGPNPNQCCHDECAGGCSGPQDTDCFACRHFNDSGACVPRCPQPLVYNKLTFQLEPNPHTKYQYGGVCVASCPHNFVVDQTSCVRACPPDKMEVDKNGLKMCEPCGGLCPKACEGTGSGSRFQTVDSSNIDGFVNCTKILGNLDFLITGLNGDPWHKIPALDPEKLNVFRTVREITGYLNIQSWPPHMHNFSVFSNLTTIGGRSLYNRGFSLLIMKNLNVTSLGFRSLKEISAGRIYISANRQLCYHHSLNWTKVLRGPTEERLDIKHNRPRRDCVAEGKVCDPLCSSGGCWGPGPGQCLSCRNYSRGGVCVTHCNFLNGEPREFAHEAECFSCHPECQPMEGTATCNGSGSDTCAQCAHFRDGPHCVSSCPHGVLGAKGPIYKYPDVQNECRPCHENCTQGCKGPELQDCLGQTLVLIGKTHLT

B1: llama VHH antibody BCD090-M2 (VHH)
VHH: QVQLVQSGGGLVQAGGSLRLSCAFSGRTFSMYTMGWFRQAPGKEREFVAANRGRGLSPDIADSVNGRFTISRDNAKNTLYLQMDSLKPEDTAVYYCAADLQYGSSWPQRSSAEYDYWGQGTTVTVSS
notes: 128 residues in the PDB entries; a single additional N-terminal glycine is left from the TEV recognition site; Selected by phage display from immunized llamas; also called VHH fragment of the antibody BCD090-M2; not shown: His6, N-terminal, cleaved; SUMO, N-terminal, cleaved
B1 displayed a Kd of 15 ± 1 nM.
